Experimental data as given in article PMC6411836.

Key:
[1] = molecular target: SLX1 endogenous in Xenopus egg extract (Xenopus laevis (endogenous in Xenopus egg extract)) (UniProt Q0IH86); assay: co-depletion by immunodepletion
[2] = molecular target: SLX4 endogenous in Xenopus egg extract (Xenopus laevis (endogenous in Xenopus egg extract)); assay: co-depletion by immunodepletion

Chain of UniProt Q0IH86 (Q0IH86 whole entry): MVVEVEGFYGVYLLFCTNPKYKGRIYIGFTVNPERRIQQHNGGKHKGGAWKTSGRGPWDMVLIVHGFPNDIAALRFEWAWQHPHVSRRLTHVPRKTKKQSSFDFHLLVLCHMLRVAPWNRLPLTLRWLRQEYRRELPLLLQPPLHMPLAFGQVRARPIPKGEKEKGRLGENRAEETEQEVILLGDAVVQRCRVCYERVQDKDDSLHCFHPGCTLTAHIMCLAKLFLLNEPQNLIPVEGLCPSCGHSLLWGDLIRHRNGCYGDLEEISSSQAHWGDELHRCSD

| percent co-depleted [1] [%] | percent co-depleted [2] [%] | Substance |
| --- | --- | --- |
| 90 | – | SLX4 endogenous in Xenopus egg extract (natural protein) |
| 50 | 50 | XPF-ERCC1 endogenous in Xenopus egg extract (complex) |
